{
  "source": "patent EP1644414B1",
  "data": [
    {"biological_target": "UV-inactivated SARS-CoV preparation (Frankfurt 1 strain) (SARS-CoV strain Frankfurt 1)", "assay": "phage ELISA, plate 2 (no phage 0.211)", "units": {"OD492nm": "OD492nm"}, "values": [
      {"binder": "SC03-025 (scFv) scFv: AMAEVQLVESGGGLVQPGGSLRLSCAASGFTFSSYAMHWVRQAPGKGLEYVSGISSNGGSTYYANSVKGRFTISRDNSKNTLYLQMGSLRAEDMAVYYCARTTNRAFDIWGQGTMVTVSSGTGGSGGTGSGTGGSTDIQLTQSPDSLAVSLGERATINCKSSQSVLYSSNNKNYLAWYQQKPGQPPKLLIYWASIRESGVPDRFSGSGSGTDFTLTISSLQAEDVAVYYCQQYYNIPYAFGQGTKLEIKRAA", "OD492nm": 1.64},
      {"binder": "SC03-024 (scFv) scFv: AMAQVQLVESGSELKIPGASVKVSCKATGYTFTRYSLNWVRQAPGQGLEWVGWINTQTGNSNYGQAFSGRFVFSLDTSVSTAYLQISSLQAEDTATYYCARKSAGSNAFDIWGQGTMVTVSSGTGGSGGTGSGTGGSTQSVVTQPPSVSAAPGQKATISCSGSSSNIGNNYVSWYQQLPGTAPKLLIYDNNKRPSGIPNRFSGSKSGTSATLGITGLQTGDEADYYCGTWDSSLSAYVFGTGTKVTVLGAA", "OD492nm": 0.235},
      {"binder": "SC03-023 (scFv) scFv: AMAQVQLQQWGAGLLKPSETLSLTCAVYGGSFSGFYWSWIRQPPGKGLEWIGEINHSGSTNYNPSLKSRVTISVDTSKNQFSLKLSSVTAADTAVYYCARRVEVVEYQLLRPRYKSWFDPWGQGTLVTVSSGTGGSGGTGSGTGGSTQSALTQPRSVSGSPGQSVTISCTGSSSTVGGYNYVSWYQQHPGKAPKLMIYDVSKRPSGVSNRFSGSKSGNTASLTISGLQAEDEADYYCSSYTSSSTYVFGTGTKVTVLGAA", "OD492nm": 1.31},
      {"binder": "SC03-020 (scFv) scFv: AMAEVQLVQSGSEVKKPGESLKISCKGSGYGFITYWIGWVRQMPGKGLEWMGIIYPGDSETRYSPSFQGQVTISADKSINTAYLQWSSLKASDTAIYYCAGGSGISTPMDVWGQGTTVTVSSGTGGSGGTGSGTGGSTDIQMTQSPDSLAVSLGERATINCKSSQKILHSSNNKNYLAWYQQKPGQPPKLLIYWASTRESGVPDRFSGSGSGTDFTLTISSLQAEDVAVYYCQQYYSTPPVFGGGTKVEIKRAA", "OD492nm": 0.671},
      {"binder": "SC03-021 (scFv) scFv: AMAQVQLVQSGTEVKKPGESLKISCKGSGYGFITYWIGWVRQMPGKGLEWMGIIYPGDSETRYSPSFQGQVTISADKSINTAYLQWSSLKASDTAIYYCAGGSGISTPMDVWGQGTTVTVSSGTGGSGGTGSGTGGSTDVVMTQSPDSLAVSLGERATINCKSSQSVLHSSNNKNYLAWYQQKPGQPPKLLIYWASTRQSGVPDRFSGSGSGTDFTLTISSLQAEDVAVYYCQQYYSTPPTFGQGTKVEIKRAA", "OD492nm": 0.215}
    ]},
    {"biological_target": "UV-inactivated SARS-CoV preparation (Frankfurt 1 strain) (SARS-CoV strain Frankfurt 1)", "assay": "phage ELISA, plate 3 (no phage 0.054)", "units": {"OD492nm": "OD492nm"}, "values": [
      {"binder": "SC03-039 (scFv) scFv: AMAEVQLVESGGGLVQPGGSLRLSCAASGFTFSSYAMSWVRQAPGKGLEWVSVIYSGGTSTYYADSVKGRFTISRDNSKNTLYLQMNSLRAEDTAVYFCAKGSKWNDVGGGDYWGQGTLVTVSSGTGGSGGTGSGTGGSTNFMLTQPHSVSESPGKTVTISCAGSSGSIASNYVQWYQQRPGSAPTTVIYEDNQRPSGVPDRFSGSIDSSSNSASLTISGLKTEDEADYYCQSYDGYLWIFGGGTKLTVLGAA", "OD492nm": 0.851},
      {"binder": "SC03-043 (scFv) scFv: AMAQVQLVQSGGGLVQPGGSLRLSCAASGFTFSSYAMHWVRQAPGKGLEYVSGISSNGGSTYYANSVKGRFTISRDNSKNTLYLQMGSLRAEDMAVYYCARTTNRAFDIWGQGTMVTVSSGTGGSGGTGSGTGGSTDIQLTQSPDSLAVSLGERATINCKSSQSVLYRSNNKNYLAWYQQKPGQPPKLLIYWASTRESGVSERFSGSGSGTDFTLTISSLQAEDVAVYYCQQYYSTPYSFGQGTKLEIKRAA", "OD492nm": 1.27},
      {"binder": "SC03-046 (scFv) scFv: AMAEVQLVQSGGGLVQPGGSLRLSCAASGFTFSSYAMHWVRQAPGKGLEYVSGISSNGGSTYYANSVKGRFTISRDNSKNTLYLQMGSLRAEDMAVYYCARTTNRAFDIWGQGTMVTVSSGTGGSGGTGSGTGGSTDVVMTQSPDSLAVSLGERATINCKSSQSVLYSSNNKNYLAWYQQKPGQPPKLLIYWASTRESGVPDRFSGSGSGTDFSLTISSLQAEDVAVYYCQQYYSPPYTFGPGTKVEIKRAA", "OD492nm": 1.9},
      {"binder": "SC03-036 (scFv) scFv: AMAEVQLVQSGTEVKKPGESLKISCKGSGYGFITYWIGWVRQMPGKGLEWMGIIYPGDSETRYSPSFQGQVTISADKSINTAYLQWSSLKASDTAIYYCAGGSGISTPMDVWGQGTTVTVSSGTGGSGGTGSGTGGSTDIQMTQSPDSLAVSLGERATINCKSSQSVLHSPNNKNYLAWYQQKPGQPPKLLIYWASTRESGVPDRFSGSGSGTDFTLTISSLQAEDVAVYYCQQYYSTNSFGQGTKLEIKRAA", "OD492nm": 0.24},
      {"binder": "SC03-034 (scFv) scFv: AMAEVQLVQSGAEVKKPGESLKISCKGSGYGFITYWIGWVRQMPGKGLEWMGIIYPGDSETRYSPSFQGQVTISADKSINTAYLQWSSLKASDTAIYYCAGGSGISTPMDVWGQGTTVTVSSGTGGSGGTGSGTGGSTDVVMTQSPDSLAVSLGERATINCKSSQSILNRSNNKNYLAWYQQKPGQPPKLLIYWASTRESGVPDRFSGSGSGTDFNLTISSLQAEDVAVYYCQQYNNWPLTFGGGTKVDIKRAA", "OD492nm": 0.802},
      {"binder": "SC03-055 (scFv) scFv: AMAQVQLQQWGAGLLKPSETLSLTCAVYGGSFSGFYWSWIRQPPGKGLEWIGEINHSGSTNYNPSLKSRVTISADTSKNQFSLKLSSVTAADTAVYYCARRVEVVEYQLLRPRYKSWFDPWGQGTLVTVSSGTGGSGGTGSGTGGSTQSVLTQPPSVSGAPGQRVSISCSGSGANGGTDPVSWYQKFPGTAPHLLIYDNNKRPSGIPDRFSGSKSGASATLDITGLQTGDEADYYCGAWDPSLSGYVFGTGTQLTVLSAA", "OD492nm": 0.608},
      {"binder": "SC03-051 (scFv) scFv: AMAQVQLVQSGTEVKKPGESLKISCKGSGYGFITYWIGWVRQMPGKGLEWMGIIYPGDSETRYSPSFQGQVTISADKSINTAYLQWSSLKASDTAIYYCAGGSGISTPMDVWGQGTTVTVSSGTGGSGGTGSGTGGSTDIQMTQSPDSLAVSLGERATINCKSGQSILYSSNDKNYLAWYQQKPGQPPKLLIYWASTRESGVPDRFSGSGSGTDFTLTISSLQAEDVAVYYCQQYYSTPYTFGQGTKVEIKRAA", "OD492nm": 0.602},
      {"binder": "SC03-057 (scFv) scFv: AMAQVQLVQSGAEVKKPGSSVKVSCKASGGTFSRYAISWVRQAPGQGLEWMGRINPILNLTNYAQKFQGRVTITADKSTSTAYMEMSSLRSEDTAIYYCASPDIVVAGHASPPHYTMDVWGQGTTVTVSSGTGGSGGTGSGTGGSTDIQMTQSPSSLSASVGDRVTITCRASQGIRNDLGWYQQKPGKAPNLLIYQASALQSGVPSRFSGSESGAEFTLTISSLHPDDFATYYCQQYHDFPITFGQGTRLEIKRAA", "OD492nm": 1.19}
    ]},
    {"biological_target": "UV-inactivated SARS-CoV preparation (Frankfurt 1 strain) (SARS-CoV strain Frankfurt 1)", "assay": "phage ELISA, plate 4 (no phage 0.051)", "units": {"OD492nm": "OD492nm"}, "values": [
      {"binder": "SC03-037 (scFv) scFv: AMAKVQLVQSGGGLIQPGGSLRLSCAASGFTVSSNYMSWVRQAPGKGLEWVSIVFSGGSTYYADSVKGRFTISRDNSKNTLYLQMNSLRAEDTAVYYCARDAHRGFGMDVWGQGTTVTVSSGTGGSGGTGSGTGGSTSSELTQDPAVSVALGQTVRITCQGDSLRSYYASWYQQKPGQAPVLVIYGKNNRPSGIPDRFSGSSSGNTASLTITGAQAEDEADYYCNGRDSSGNHWVFGGGTKLTVLGAA", "OD492nm": 0.287},
      {"binder": "SC03-038 (scFv) scFv: AMAEVQLVQSGGGLIQPGGSLRLSCAASGFTVSSNYMSWVRQAPGKGLEWVSIVFSGGSTYYADSVKGRFTISRDNSKNTLYLQMNSLRAEDTAVYYCARDAHRGFGMDVWGQGTTVTVSSGTGGSGGTGSGTGGSTSSELTQDPAVSVALGQTVRITCQGDSLRSYYASWYQQKPGQAPVLVIYGKNNRPSGIPDRFSGSSSGDTASLTITGAQAEDEADYYCNSRDSSGNHWVFGGGTKLTVLGAA", "OD492nm": 0.314},
      {"binder": "SC03-044 (scFv) scFv: AMAEVQLVETGGGLVQPGGSLRLSCAASGFTFSSYAMHWVRQAPGKGLEYVSGISSNGGSTYYANSVKGRFTISRDNSKNTLYLQMGSLRAEDMAVYYCARTTNRAFDIWGQGTMVTVSSGTGGSGGTGSGTGGSTDIQMTQSPDSLAVSLGERATINCKSSQSVLYSSNNKNYLAWYQQKPGQPPKLLIYWASTRESGVPDRFRGSGSGTDFTLTISSLQAEDLAVYYCQQYYSTPYSFGQGTKLEIKRAA", "OD492nm": 0.518},
      {"binder": "SC03-054 (scFv) scFv: AMAEVQLVQSGGGVVQPGRSLRLSCAASGFTFSSYAMHWVRQAPGKGLEYVSGISSNGGSTYYANSVKGRFTISRDNSKNTLYLQMGSLRAEDMAVYYCARTTNRAFDIWGQGTMVTVSSGTGGSGGTGSGTGGSTDIQLTQSPDSLAVSLGERATINCKSSQSVLYSSNNKNYLAWYQQKPGQPPKLLIYWASTRESGVPDRFSGGGSGTDFTLTISSLQAEDVAVYYCQQYYSTPYSFGQGTKVEIKRAA", "OD492nm": 0.428},
      {"binder": "SC03-040 (scFv) scFv: AMAQVQLVQSGGGLVQPGGSLRLSCAASGFTFSSYAMHWVRQAPGKGLEYVSGISSNGGSTYYANSVKGRFTISRDNSKNTLYLQMGSLRAEDMAVYYCARTTNRAFDIWGQGTMVTVSSGTGGSGGTGSGTGGSTDIQMTQSPDSLAVSLGERATINCRSSQSVLYSSNNKNYLAWYQQKPGQPPKLLIYWASTRESGVPDRFSGSGSGTDFTLTISSLQAEDVAVYYCQQYYSSPYSFGQGTKLEIKRAA", "OD492nm": 0.616},
      {"binder": "SC03-031 (scFv) scFv: AMAQVQLVQSGADVKKPGSSVKVSCEASGGTFSSYAISWVRQAPGQGLEWMGRIIPILGITNYAQKFQGRVTITADKSTGTGNMELSSLRSEDTAVYYCARESGGGYDNHFDYWGQGTLVTVSSGTGGSGGTGSGTGGSTQSVLTQPPSASGTPGQRVTISCSGGSSNIGSNTVNWYQQLPGTAPKLVIYANNQRPSGVPDRFSASKSGTSASLAISGLQSEDEADYYCAAWDDSLTGGVFGGGTQLTVLSAA", "OD492nm": 0.635},
      {"binder": "SC03-033 (scFv) scFv: AMAQVQLVQSGTEVKKPGESLKISCKGSGYGFITYWIGWVRQMPGKGLEWMGIIYPGDSETRYSPSFQGQVTISADKSINTAYLQWSSLKASDTAIYYCAGGSGISTPMDVWGQGTTVTVSSGTGGSGGTGSGTGGSTDVVMTQSPDSLAVSLGERATINCKTSHNIFSRSNNKDYLAWYQQKPGQPPRLLIYWASTRASGVPERFSGSGSGTDFSLTISSLQAEDVAVYYCQQYYSSPMYSFGQGTKVEIKRAA", "OD492nm": 0.288}
    ]}
  ]
}
